B1: CD137 antibody clone 008 (rabbit) (antibody, human IgG1, kappa, V domains shown)
VH: QSLEESGGRLVTPGTPLTLTCTASGFSLSSYDMSWVRQAPGKGLEYIGYISSSGNTYYASWAKSRFTISKTSTTVDLKITSPTTEDTATYFCAREGDYWDFNLWGPGTLVTVSS
VL: AQVLTQTPSSVSAAVGGTVTINCQASQSISNLLAWYQQKPGQRPRLLIYRASTLASGVPSRFKGSGSGTEFTLTISDLESEDAATYYCAGGFPGLDTGATFGGGTEAVVTR
notes: also called Clone 8; CD137 clone 008
B2: CD137 antibody clone 007 (rabbit) (antibody, human IgG1, kappa, V domains shown)
VH: QSLEESGGRLVTPGTPLTLTCTASGFSLSSYDVSWVRQAPGKGLEYIGFIGSDGSAHYATWVKGRFTISKTSTTVDLKITSPTTEDTATYFCARDWNDYWAHDLWGPGTLVTVSS
VL: AQVLTQTTSPVSAAVGGTVTINCQASQIVTSKSALSWYQQKPGQPPRLLIYKASTLASGVPSRFSGSGSGTQFTLTISDLESDDAATYYCAGGYYNSGDLNPFGGGTEVVVKR
notes: also called Clone 7; CD137 clone 007
B3: CD137 antibody clone 012 (rabbit) (antibody, human IgG1, kappa, V domains shown)
VH: QSVEESGGRLVTPGTPLTLTCTVSGFSLSDYYMTWVRQAPGKGLEYIGIMSGSGSTYYASWAKGRFTISKTSSTTLELKITSPTTEDTAIYFCARDGDYAGWGYATGAFDPWGPGTLVTVSS
VL: AAVLTQTPSPVSAAVGGTVTISCQASQSVVGNSLLSWFQKKPGQPPKLLIYSASSLASGVPSRFKGSGSGTQFTLTISDLESDDAATYYCTGRYNSDTDTFVFGGGTEVVVKR
notes: also called Clone 12; CD137 clone 012
B4: CD137 antibody clone 003 (rabbit) (antibody, human IgG1, kappa, V domains shown)
VH: QSVEESGGRLVTPGTPLTLTCTASGFTISSYHMIWVRQAPGEGLEWIGDIYGGTATTDYASWAKGRFTISKTSTTVDLKMTSLTTEDTATYFCARARYSGGSYANYVFNLWGQGTLVTVSS
VL: DIVMTQTPASVEAAVGGTVTIKCQASQSISSYLAWYQQKPGQPPKLLIYRTSTLESGVPSRFKGSGSGTEFTLTISDLESADAATYYCQGYDWSSSNRYDNTFGGGTEVVVKR
notes: also called Clone 3; CD137 clone 003
B5: CD137 antibody clone 002 (rabbit) (antibody, human IgG1, kappa, V domains shown)
VH: QSVEESGGRLVTPGTPLTLTCTVSGFSLTYYAVTWVRQPPGKGLEWIGVIYDNGATAFATWAKGRFTMSKNSTTVALKVTSPTTEDTATYFCARSANNAWSTYSNLWGQGTLVTVSS
VL: DIVMTQTPSSVSAAVGGTVTINCQASEDISSYLSWYQQKLGQPPKLLIYKASTLESGVPSRFKGSGSGTEYTLTISDLESDDAATYYCQSYYSGSISGYGFVFGGGTGVVVKR
notes: also called Clone 2; CD137 clone 002

One experiment concerns the target T1, Human CD137 (TNR9_Human) (human, UniProt Q07011 24-255).
T1 construct: Full-length human CD137 expressed on HEK293T-17, NF-kB/293/GFP-Luc or K562 cells, or native on T cells; also called hCD137 wt; 4-1BB
Put plainly: flow cytometry, HEK293-T17 cells transiently transfected with human CD137, antibody at 1 µg/mL, APC-labeled F(ab')2 secondary [cont.]. How it is done: (§1) FIG. 4: Binding of CD137 antibody clones to CD137 shuffle constructs expressed on HEK293-T17 cells. HEK293-T17 cells were transfected with the CD137 shuffle constructs, and with human CD137 (hCD137 wt), African elephant of wild boar CD137, as indicated. Binding of the different CD137 antibody clones to these constructs expressed on HEK293-T17 cells was measured by flow cytometry. Staining with polyclonal anti-CD137 antibody is shown as a control.
(§2) 3×10⁶ HEK293T-17 cells were seeded in T75 culture flasks (Greiner Bio-One, cat. no. 658175) in 20 mL RPMI 1640 GlutaMAX medium containing 10% FCS (Biochrom, cat. no. S 0115). After O/N incubation, cells were transiently […] with expression vectors encoding the shuffle constructs or the wild boar, African elephant or human CD137 downstream of a constitutively active human elongation factor-1 alpha (EF-1 alpha) promotor using TransIT®-LT1 Transfection Reagent, Mirus Bio (VWR International, cat. no. 731-0029), according to the manufacturer's instructions. The next day, cells were harvested using 1.5 mL Accutase (Sigma Aldrich, cat. no. A6964) (incubation at 37° C. for 5 min.) and flow cytometry was performed, essentially as described in Example 4, to measure surface expression of the shuffle constructs and the human, African elephant and wild boar CD137 and to measure binding of the antibody clones to the different shuffle constructs. To measure cell surface expression of the constructs, transduced cells were incubated with 1 μg/mL goat polyclonal anti-human CD137 (R&D Systems, cat. no. AF838) in FACS buffer (D-PBS supplemented with 5 mM EDTA [Sigma Aldrich, cat. no. 03690] and 5% (v/v) fetal bovine serum [FBS, Biochrom, cat. no. S 0115]) (4° C., 20 min.), followed by incubation with APC-labeled anti-goat IgG (H+L) (R&D Systems, cat. no. F0108) (4° C., 20 min.). Binding of the different CD137 antibody clones to cells expressing the shuffle constructs was measured by incubation of the transduced cells with 1 μg/mL of the antibody clones, followed by APC-labeled AffiniPure F(ab′)2 Fragment (1:50 final dilution; Jackson, cat. no. 109-136-127).
Background: Flow cytometry measures light scatter and fluorescence of single cells or particles in a stream.
For B1, the binding result is “binds”.
As for B2, the binding result was “binds”.
Still for that read-out and setting: under B3 stands “binds”.

For the next experiment, the target named is T2, Human CD137 shuffle 1 (amino acids 162-186 replaced by wild boar CD137) (human, amino acids 162-186 from wild …, UniProt Q07011 24-255).
T2 construct: also called shuffle construct 1
T2 chain: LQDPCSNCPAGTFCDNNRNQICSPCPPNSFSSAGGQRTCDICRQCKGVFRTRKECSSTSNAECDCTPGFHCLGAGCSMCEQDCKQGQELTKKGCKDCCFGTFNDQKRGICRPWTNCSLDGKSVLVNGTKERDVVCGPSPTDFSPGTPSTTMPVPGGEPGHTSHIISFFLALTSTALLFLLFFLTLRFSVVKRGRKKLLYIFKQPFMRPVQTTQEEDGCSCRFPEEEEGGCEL
Description: flow cytometry on transfected HEK293T-17 cells, 1 µg/mL antibody. As to the method:
as §2
In the case of B1, the binding result is “binds”.
Same read-out and setting: the value for B2 was “binds”; that for B3 was “binds”; that for B4 was “binds”.
On to B5, for which the binding result is “binds”.

Another experiment addresses T3, Human CD137 shuffle 4 (amino acids 89-114 replaced by wild boar CD137) (human, amino acids 89-114 from wild boar, UniProt Q07011 24-255).
T3 construct: also called shuffle construct 4
T3 chain: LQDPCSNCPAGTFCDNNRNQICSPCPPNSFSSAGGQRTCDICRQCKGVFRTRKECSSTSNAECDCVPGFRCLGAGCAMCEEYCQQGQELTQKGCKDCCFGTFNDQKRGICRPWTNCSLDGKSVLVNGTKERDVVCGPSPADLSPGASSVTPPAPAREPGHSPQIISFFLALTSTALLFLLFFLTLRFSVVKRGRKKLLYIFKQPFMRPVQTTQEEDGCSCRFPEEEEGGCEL
The description is as above. As to the method: as §2
As for B3, the binding result is reported as “binds”.
As to B5, the binding result is “binds”.

The target in a further experiment is T4, Human CD137 shuffle 3 (amino acids 115-138 replaced by wild boar CD137) (human, amino acids 115-138 from wild …, UniProt Q07011 24-255).
T4 construct: also called shuffle construct 3
T4 chain: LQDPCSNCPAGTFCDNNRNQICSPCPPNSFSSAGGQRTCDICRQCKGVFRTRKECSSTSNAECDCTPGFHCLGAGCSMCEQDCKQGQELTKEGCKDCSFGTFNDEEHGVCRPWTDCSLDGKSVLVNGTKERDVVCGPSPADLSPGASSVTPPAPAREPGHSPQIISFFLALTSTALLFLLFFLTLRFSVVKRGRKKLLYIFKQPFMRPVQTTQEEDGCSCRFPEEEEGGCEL
The experiment is described as above. As to the method: as §2
Turning to B1, the binding result is listed as “binds”.
On the same count and under the same terms, under B2 stands “binds”; under B3, “binds”.
Same read-out and setting: under B4 stands “binds”.
Same read-out and setting: the value for B5 was “binds”.

In a further experiment the target is T5, Human CD137 shuffle 5 (amino acids 48-88 replaced by African elephant CD137) (human, amino acids 48-88 from African …, UniProt Q07011 24-255).
T5 construct: also called shuffle construct 5
T5 chain: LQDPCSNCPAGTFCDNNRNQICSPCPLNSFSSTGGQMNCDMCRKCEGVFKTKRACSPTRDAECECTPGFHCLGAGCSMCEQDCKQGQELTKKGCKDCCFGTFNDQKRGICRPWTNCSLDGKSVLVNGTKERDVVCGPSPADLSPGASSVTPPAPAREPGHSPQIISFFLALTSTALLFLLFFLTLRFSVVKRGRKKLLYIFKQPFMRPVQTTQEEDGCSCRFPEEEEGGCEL
Described as above. How it is done: as §2
Take B1: the binding result is “binds”.
On the same count and under the same terms, under B2 stands “binds”.
Same read-out and setting: the value for B3 was “binds”.
The same measure, in the same setting: the value for B4 was “binds”.

The target of a further experiment is T6, Human CD137 shuffle 2 (amino acids 139-161 replaced by wild boar CD137) (human, amino acids 139-161 from wild …, UniProt Q07011 24-255).
T6 construct: also called shuffle construct 2
T6 chain: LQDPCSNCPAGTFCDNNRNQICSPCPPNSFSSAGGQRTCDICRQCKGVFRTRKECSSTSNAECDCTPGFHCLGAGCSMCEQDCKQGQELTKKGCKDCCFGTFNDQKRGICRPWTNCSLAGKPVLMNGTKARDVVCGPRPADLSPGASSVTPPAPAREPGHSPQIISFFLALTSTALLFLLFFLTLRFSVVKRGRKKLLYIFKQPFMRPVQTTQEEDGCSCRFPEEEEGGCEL
Described as above. How it is done: as §2
In the case of B1, the binding result was “binds”.
Still for that read-out and setting: the value for B2 was “binds”.
B3: the binding result is listed as “binds”.
Turning to B4, the binding result is on record as “binds”.
Turning to B5, the binding result is given as “binds”.

The target of a further experiment is T1, Human CD137 (TNR9_Human). Description: flow cytometry, HEK293-T17 cells transiently transfected with human CD137, antibody at 1 µg/mL, APC-labeled F(ab')2 secondary. How it is done: as §1, §2
Regarding B4, the binding result is given as “binds”.
The same measure, in the same setting: under B5 stands “binds”.

The target in a further experiment is T3, Human CD137 shuffle 4 (amino acids …). Put plainly: flow cytometry on transfected HEK293T-17 cells. How it is done:
as §2
With B1, the binding result was “no binding (tested: 1 µg/mL)”.
The same measure, in the same setting: under B2 stands “no binding (tested: 1 µg/mL)”.
Consider B4, for which the binding result was “no binding (tested: 1 µg/mL)”.

The next experiment has as its target T5, Human CD137 shuffle 5 (amino acids …). Put plainly: flow cytometry on transfected HEK293T-17 cells. As to the method:
as §2
For the molecule B5, the binding result is “no binding (tested: 1 µg/mL)”.

Values taken from patent US20210317225A1 (Genmab, published 2021).
